System: MS2 coat protein
Assay: apparent KD of MS2 coat protein; designed switch direction (-1 OFF switch, 1 ON switch): 1; higher = weaker reporter binding
Summary of the method: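 RNA switches sharing common flanks were transcribed by stalled E. coli RNA polymerase on Illumina chips. A doubling series of SNAP-549-labelled MS2 coat protein, from 0.7 or 1.5 nM to 3 µM, was applied in Tris-HCl pH 7.5 buffer with KCl, MgCl2, BSA, DTT, tRNA and Tween-20. Each step lasted 0.8–1.5 h at the bottom of the series and 10–20 min at the top. Normalised cluster fluorescence was curve-fitted, giving apparent KD as the per-design median over clusters.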

[1] = Eterna round: R95, input ligand: FMN 200 uM
[2] = Eterna round: R95, input ligand: microRNA oligo, concentration not stated
[3] = Eterna round: R95, input ligand: none
[4] = input ligand: microRNA oligo, concentration not stated

| Sequence | apparent KD of MS2 coat protein [1] | apparent KD of MS2 coat protein [2] | apparent KD of MS2 coat protein [3] | apparent KD of MS2 coat protein (input ligand: FMN 200 uM) | apparent KD of MS2 coat protein [4] | apparent KD of MS2 coat protein (input ligand: none) |
| --- | --- | --- | --- | --- | --- | --- |
| UACAAUCUAUCUGAGGAUAUCAUGAAAAAAACAUGAGGAUCACCCAUGUGCAGGAAAACUGCAUAUGAGAAGGCAGAUAGAUUGU [salish99_SS2_r3_006] (puzzle: Same State 2) | 32.4 nM | 971 nM | 1650 nM | – | – | – |
| UACAAUCUAUCUGAGGAUAUCAUGAAAUAAACAUGAGGAUCACCCAUGUGCAGGAAAACUGCAUAUGAGAAGGCAGAUAGAUUGA [salish99_ss2_r3_018] (puzzle: Same State 2) | 50.2 nM | 1130 nM | 1810 nM | – | – | – |
| UAAUUAAGUCAAGGAUAUCACGUCGAUUAGACGUGAGAAGGUGAUUAAUACAUGAGGAUCACCCAUGUAAUACAUGAAUAAUUA [SSNG1/11-B2] (Eterna round: R96, puzzle: Same State NG 1) | – | – | – | 37.1 nM | 61.4 nM | 76.1 nM |
| ACAUGAGACUUAGGAUAUGUUGUACCUACAUGUGACAUGAGGAUCACCCAUGUGGUAAGUAUGAGACAGAAGGAAGAGAUAUGU [Equivalence 29 - Jieux - Same State NG 2] (Eterna round: R96, puzzle: Same State NG 2) | – | – | – | 7.53 nM | 26.3 nM | 54.7 nM |
| AAGAGACAUGAGGAUCACCCAUGUUUGAAUAAUAUAGGAUAUAUACCACAUGUAAAAGAAAUAGAAGGAUAAGAAA [Default title] (puzzle: Same State 1) | 77 nM | 114 nM | 534 nM | – | – | – |
| UGUUGUUAAUUAGGAUAUGGUCACAUGAGGAUCACCCAUGUAAUGUCGAUGCUAUGUGGAUACGAUCAGAAGGAAUGGCUAACA [SameState NG2 #94] (Eterna round: R96, puzzle: Same State NG 2) | – | – | – | 93.3 nM | 225 nM | 175 nM |
| UAGUGAUUGCAAGGAUAUGCUAGUUUUUAUUUGUGUUUGAUAACAAACAUGAGGAUCACCCAUGUGCAGAAGGUGCAAGAUAUG [JR_SSNG2_Sub078] (Eterna round: R96, puzzle: Same State NG 2) | – | – | – | 193 nM | 361 nM | 647 nM |
| UAUGAAUUGCAAGGAUAUUGAUAACAUGAGGAUCACCCAUGUAAUUGAUCGAGUUAGAUCAGUUACAAGAAGGUGCUAUUGUUU [JR_SSNG2_Sub037] (Eterna round: R96, puzzle: Same State NG 2) | – | – | – | 1810 nM | 33.2 nM | 70 nM |
| GAUCGUUUGAUAGGAUAUCGCUAUACAUGAGGAUCACCCAUGUUUACCACGCUGGUUUUUCAUACCGAGAAGGAUUCUGAUGAU [salish99_SSNG02_r04_009] (Eterna round: R96, puzzle: Same State NG 2) | – | – | – | 29.9 nM | 24.9 nM | 36.9 nM |
| GAUUAACAUGAGGAUCACCCAUGUCGUUUAAUGGGAGGAUAUACGUGGACCGUAGUCCGCGUAGAAGGCCUAAUUG [JL-ss1-3.22 janelle mod] (Eterna round: R96, puzzle: Same State 1) | – | – | – | 31.5 nM | 48.3 nM | 77.4 nM |
| UUACAUGAGGAUCACCCAUGUCGCUGGUAAACUUCGAACCCGCAGGAUAUGUAUGCCACUUUACGACAGAAGGGCGGGUGCCUG [Eternabot solution 47] (Eterna round: R96, puzzle: Same State NG 3) | – | – | – | 37.9 nM | 50.3 nM | 64.3 nM |
| AGUCCAGCCUAAGCUGGACAAAAGCAUGUACAUGAGGAUCACCCAUGUUCAUGUACAAGCUUUUUGCAAGUCAAAAU [Mat - hsa-mir-208a - Mod of JL - 79] (Eterna round: R96, puzzle: Sensor for hsa-mir-208a) | – | – | – | 837 nM | 19.1 nM | 725 nM |
| GCGAGCGUACUUGCUACAUGAGGAUCACCCAUGUUUCAUGGACAGGAUAUGGUACCGUUUCGGUACCAGAAGGGUUCACAUGUG [JL SSNG3 3.81] (Eterna round: R96, puzzle: Same State NG 3) | – | – | – | 88.7 nM | 68 nM | 92.1 nM |
| UGAAUAGUUACAGGAUAUGAGUUGUAAAUUGGGUCAGAAGGGUGGGUGUUCUGCGCGGUGUGUUACAUGAGGAUCACCCAUGUU [SameState NG1 #29] (Eterna round: R96, puzzle: Same State NG 1) | – | – | – | 504 nM | 182 nM | 377 nM |
| CAGCGCUGUCGAGAGGAUAUGCGGUGAUGGACAUGAGGAUCACCCAUGUAAGCGAUAGCAUUACGGCAGAAGGCUCUGCAGCUGC [Riaranzaes] (Eterna round: R96, puzzle: Same State 2) | – | – | – | – | 17.2 nM | – |
| UUGCGCUGUCGAGAGGAUAUGCGGUGUUGGACAUGAGGAUCACCCAUGUUAGCGAUAGCAUUACGGUAGAAGGCUCUUCAGCUGC [salish99_ss2_r3_096] (puzzle: Same State 2) | 23.4 nM | 17 nM | 21.9 nM | – | – | – |
| ACGCCUAAACGGCGAAAACGACAUGAGGAUCACCCAUGUACACAGGAUAUCAGCCUGCAACAGGCUGAGAAGGGUGAACCUAAA [Atatmadiar] (Eterna round: R96, puzzle: Same State NG 3) | – | – | – | 711 nM | 35.5 nM | 155 nM |
| CGUCGCUGUCGAGAGGAUAUGCGGUGAUGGACAUGAGGAUCACCCAUGUUAGCGAUAGUAUCACGGUAGAAGGCUCUUACGACUG [Soteed Omei mod 26] (puzzle: Same State 2) | – | 26.7 nM | – | – | – | – |
| GUGGUCAGACAUGAGGAUCACCCAUGUGGAAUAAAUAAGGACUAGGAUAUCGAAUAUAGGAUAUACGAGAAGGAGUGGUUGGUG (Eterna round: R96, puzzle: Same State NG 3) | – | – | – | 81.1 nM | 53.5 nM | 67.9 nM |
| GUUACAUGAGGAUCACCCAUGUAUGUGUGGGAGUAAGUGUCUUAGGAUAUCUAUCAUUUAAUUCAAGAGAAGGAAGAUUGUUGU [JMF's solution 100] (Eterna round: R96, puzzle: Same State NG 3) | – | – | – | 126 nM | 96.1 nM | 103 nM |
| UAUGACUUACAAGGAUAUUAAUAACAUGAGGAUCACCCAUGUGGCUGUGUGUGUUAGAUAAGCUAUAAGAAGGUGUGUGUGUUU [JR_SSNG2_Sub095] (Eterna round: R96, puzzle: Same State NG 2) | – | – | – | 66.2 nM | 244 nM | 223 nM |
| GCUCGAUGUGUUGUCUACAUGAGGAUCACCCAUGUAGAUGCGGAGGAUAUCUACGUGCUUUAUGUAGAGAAGGUCGUAUCGAGC [SameState NG3 #85] (Eterna round: R96, puzzle: Same State NG 3) | – | – | – | 18 nM | 23.7 nM | 34.3 nM |
| CAGCGCUGUUGAGAGGAUAUGCGGUGAUGGACAUGAGGAUCACCCAUGUUAGCGACAGCAUUACGGUAGAAGGCUUCACAGCUGC [Soteed Omei mod 16] (puzzle: Same State 2) | 38.9 nM | 126 nM | 235 nM | – | – | – |
